Test [1] addresses JAK1-Y1034 phosphopeptide with an alanine substitution at the +3 position (Homo sapiens). Nature of the test: ITC. For orientation: ITC needs no label: the signal is the heat of the interaction.
The target in test [2] is JAK1 kinase domain (JH1) (Homo sapiens (Human)) (UniProt P23458). Nature of the test: cell-based or functional assay.
The target of test [3] is JAK2 kinase domain (JH1). As to the kind of experiment: cell-based or functional assay.
The target of test [4] is JAK3 kinase domain (JH1). As to the kind of experiment: cell-based or functional assay.
Test [5] concerns the target TYK2 kinase domain (JH1). Nature of the test: cell-based or functional assay.
For test [6], the target named is JAK1 activation loop phosphopeptide (Tyr1034 phosphorylated) (Homo sapiens). As to the kind of experiment: ITC.

The values below come from patent publication US20220267447A1.

For orientation: Kd means the free concentration of one partner at which half of the binding sites on the other are occupied at equilibrium, for simple one-to-one binding.

Sequence of JAK1 kinase domain (JH1) (Homo sapiens (Human)) (P23458 854-1154 limits assumed): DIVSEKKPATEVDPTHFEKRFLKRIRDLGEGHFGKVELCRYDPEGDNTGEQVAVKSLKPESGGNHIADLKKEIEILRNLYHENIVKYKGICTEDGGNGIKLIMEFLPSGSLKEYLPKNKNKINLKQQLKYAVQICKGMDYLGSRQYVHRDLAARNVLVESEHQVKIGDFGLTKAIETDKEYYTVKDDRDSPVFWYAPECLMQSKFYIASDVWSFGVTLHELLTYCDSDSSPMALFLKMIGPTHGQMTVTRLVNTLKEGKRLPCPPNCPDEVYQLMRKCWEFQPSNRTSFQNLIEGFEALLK
Sequence of human CIS lacking the N-terminal 34 residues (AN34), trimeric complex with elongin B and elongin C (Q9NSE2 35-258): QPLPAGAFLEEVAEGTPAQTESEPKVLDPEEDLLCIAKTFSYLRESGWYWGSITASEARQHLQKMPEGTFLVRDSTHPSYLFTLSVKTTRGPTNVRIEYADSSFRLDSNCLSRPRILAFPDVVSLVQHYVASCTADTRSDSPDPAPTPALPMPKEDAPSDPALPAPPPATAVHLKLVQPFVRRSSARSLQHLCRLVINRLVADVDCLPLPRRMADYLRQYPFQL
Sequence of human CIS lacking the N-terminal 34 residues (AN34), trimeric complex with elongin B and elongin C (Q15370 whole entry): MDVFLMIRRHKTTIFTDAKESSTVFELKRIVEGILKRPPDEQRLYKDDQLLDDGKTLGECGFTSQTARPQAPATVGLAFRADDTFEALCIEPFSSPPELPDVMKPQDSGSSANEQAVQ
Sequence of human CIS lacking the N-terminal 34 residues (AN34), trimeric complex with elongin B and elongin C (Q15369 17-112): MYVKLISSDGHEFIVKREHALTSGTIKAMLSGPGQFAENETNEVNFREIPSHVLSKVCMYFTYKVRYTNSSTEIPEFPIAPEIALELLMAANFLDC

“human CIS lacking both the N-terminal region (residues 1-66) and the PEST motif (ANT/APEST), trimeric complex with elongin B and elongin C (from UniProt Q9NSE2 67-258; Q15370 1-118; Q15369 17-112)”: the fold reduction of binding against the wild-type JAK1-Y1034 phosphopeptide in test [1] is 4 fold. Also, in test [2], the IC50, inhibition of the JAK1 kinase domain (JH1) in an in vitro kinase reaction amounted to 0.6 µM.

Regarding “hCIS-SH2-BC: recombinant trimeric complex of a human GST-CIS construct (hCIS-SH2) with Elongins B and C (from UniProt Q9NSE2 66-258; Q15370 1-118; Q15369 17-112)”, the IC50, inhibition of JAK1 phosphorylation of a substrate peptide (in vitro kinase assay) in test [2] was found to be 0.12 µM. In addition, the efficiency of JAK1 JH1 kinase inhibition relative to SOCS1 in test [2] worked out at 100 fold. For the same substance, the kinase inhibition relative to inhibition of JAK1 (in vitro kinase assay with JH1 domains) in test [3], in test [4] and in test [5] was 20 fold throughout.

“human CIS lacking the N-terminal 34 residues (AN34), trimeric complex with elongin B and elongin C (from UniProt Q9NSE2 35-258; Q15370 1-118; Q15369 17-112)” registered a Kd in test [6] of 2.2 to 10 µM.
